Measured values reported in patent US12616740B2, “Methods of using a GIP/GLP1 co-agonist for therapy” (ELI LILLY AND COMPANY, priority 2018, dated 2026).

Legend:
Format in all cases: in vivo, human
[1] = tested on: patients with T2DM who have inadequate glycemic control; experiment: Phase 2 clinical study NCT03131687 (26 weeks): patients reaching HbA1c target; conditions: dulaglutide 1.5 mg once weekly
Description: (§1) Clinical Study (NCT03131687) Supporting Maintenance Dose Embodiments A 6-month (26-week) Phase 2 double-blind clinical study is designed to evaluate the safety, efficacy, and PK/PD of 4 dose levels (1 mg, 5 mg, 10 mg and 15 mg respectively) of tirzepatide once weekly by subcutaneous injection compared with dulaglutide 1.5 mg. once weekly (QW) and placebo QW in patients with T2DM who have inadequate glycemic control with diet and exercise with or without a stable dose of metformin. Tirzepatide dose is up-titrated to the maintenance dose using the following weekly dose increments:
(§2) The study also has a 4-week follow up period. In addition to safety and efficacy for treating T2DM, efficacy endpoints include the effect of tirzepatide on HbA1c, FBG, body weight, lipids, and waist circumference compared with placebo and with dulaglutide 1.5 mg. The study also evaluates the effect of tirzepatide on GI tolerability, hypoglycemia, hypersensitivity reactions, and pancreatic safety, as well as the development of treatment-emergent anti-drug antibodies. Model-based dose response analyses are performed to predict potential for significant HbA1c lowering and weight loss in longer studies. Statistical Analyses: Efficacy: The primary efficacy outcome of HbA1c change from baseline to the 26-week endpoint is analyzed using a Bayesian dose-response model. Analyses are performed on the intention to treat population (mITT) analysis set. Supportive analysis of the primary efficacy outcome for the mITT dataset are the model for post-baseline measures (MMRM) with body mass index (BMI) (<30 kg/m^2, ≥30 kg/m^2), metformin use, treatment, visit, and treatment-by-visit interaction as fixed effects, baseline HbA1c as a covariate, and patient as a random effect. The mean weight change from baseline at 12 and 26 weeks, along with the mean change from baseline of HbA1c at 12 weeks, is analyzed using similar dose-response models as the primary analyses. The percentages of patients with ≥5% or ≥10% body weight loss, reaching the HbA1c target of ≤6.5% or ≤7.0% at 26 weeks, or requiring rescue therapy are analyzed using logistic regression with fixed effects of treatment and strata, and baseline as a covariate. The changes from baseline in FBG (fasting blood glucose), SMBG (self-monitored blood glucose) levels, waist circumference, and mean percentage change in lipids from baseline to 12 and 26 weeks are analyzed using a similar MMRM to the one used for the primary analyses. Table Abbreviations: Dula 1.5 mg=dulaglutide 1.5 mg once weekly; LY means tirzepatide, and LY 1 mg=tirzepatide 1 mg once weekly; LY 5 mg=5 mg once weekly; LY 10 mg=escalation dose group tirzepatide once weekly with highest dose of 10 mg; LY 15 mg=escalation dose group of tirzepatide once weekly with highest dose 15 mg; LOCF=last observation-carried-forward; N=number of patients; pbo=placebo; Week 26=mITT on-treatment data at Week 26 excluding data after study drug discontinuation or rescue drug initiation; mITT=modified intent-to-treat; SD=standard deviation. For Table 4, n=number of patients in the population with baseline and post-baseline value at the specified time point. For Table 6, LY10 mg=escalation dose group tirzepatide, once weekly with highest dose of 10 mg; escalation dose: (5 mg weeks 0 and 1), LY15 mg=escalation dose group tirzepatide, once weekly with highest dose of 15 mg; escalation dose: (5 mg weeks 0 and 1; 10 mg weeks 2 to 5); N=number of patients in specified group, m=number of patients who experienced new event during interval, FolUp=follow up, T/Wk=Time range, (week) and %=means percent patients spending at least some time in treatment group who experienced new event during interval. For Table 7, n is the number of patients with events meeting the criteria; N is number of patients in the population; % is percent of patients in treatment group experiencing the event.

[2] = NCT03131687: decrease appetite (reported event); conditions: dulaglutide 1.5 mg once weekly, N = 54
Description: as §1, §2

[3] = tested on: patients with T2DM who have inadequate glycemic control; experiment: NCT03131687: mean fasting glucose at Week 26; design: Mean change from baseline, fasting glucose: unit not given here; conditions: dulaglutide 1.5 mg once weekly, N 46
Description: as §1, §2

[4] = NCT03131687: nausea, vomiting and diarrhea, new events per interval; conditions: dulaglutide 1.5 mg once weekly, N = 54
Description: as §1, §2

[5] = NCT03131687: weight loss at Week 26; conditions: dulaglutide 1.5 mg once weekly
Description: as §1, §2

[6] = second line, analysis set not given (not LOCF)

Question: For dulaglutide [reference compound], which “% of Patients Reaching HbA1c Target <5.7%” value ([1]; LOCF Week 26 (N = 54)) is on record?
Answer: The value was 1.9%.

Question: And the “% of Patients Reaching HbA1c Target <6%” value ([1]; LOCF Week 26 (N = 54))?
Answer: Its value is 11.1%.

Question: What about the “odds ratio vs. placebo, Patients Reaching HbA1c Target <5.7%” value ([1]; LOCF Week 26 (N = 54)) of the same substance?
Answer: Its value is 1.0.

Question: What about the “odds ratio vs. placebo, Patients Reaching HbA1c Target <6%” value ([1]; LOCF Week 26 (N = 54)) of the same substance?
Answer: The value was 4.5.

Question: And the “% of Patients Reaching HbA1c Target <5.7%” value ([1]; mITT Week 26 (N = 47))?
Answer: Its value is 2.1%.

Question: And the “% of Patients Reaching HbA1c Target <6%” value ([1]; mITT Week 26 (N = 47))?
Answer: Its value is 12.8%.

Question: And the “odds ratio vs. placebo, Patients Reaching HbA1c Target <5.7%” value ([1]; mITT Week 26 (N = 47))?
Answer: Its value is 0.89.

Question: What about the “odds ratio vs. placebo, Patients Reaching HbA1c Target <6%” value ([1]; mITT Week 26 (N = 47)) of the same substance?
Answer: The value was 4.5.

Question: And the “Decrease Appetite (reported): n, number of patients with events” value [2]?
Answer: The value was “n = 3;”.

Question: What about the “Decrease Appetite (reported): percent of patients in treatment group experiencing the event” value [2] of the same substance?
Answer: Its value is 5.6%.

Question: What about the “Mean change from baseline, fasting glucose” value [3] of the same substance?
Answer: The value was −34.9.

Question: What about the “Mean glucose value (fasting)” value [3] of the same substance?
Answer: The value was 140.5 mg/dL.

Question: And the “Nausea Vomiting and Diarrhea: % patients who experienced new event during interval” value ([4]; Fol Up (follow up))?
Answer: Its value is 5.9%.

Question: What about the “Nausea Vomiting and Diarrhea: m, number of patients who experienced new event during interval” value ([4]; Fol Up (follow up)) of the same substance?
Answer: Its value is 3.

Question: What about the “Nausea Vomiting and Diarrhea: % patients who experienced new event during interval” value ([4]; T/Wk 0) of the same substance?
Answer: The value was 22.2%.

Question: What about the “Nausea Vomiting and Diarrhea: m, number of patients who experienced new event during interval” value ([4]; T/Wk 0) of the same substance?
Answer: The value was 12.

Question: What about the “Nausea Vomiting and Diarrhea: % patients who experienced new event during interval” value ([4]; T/Wk 1) of the same substance?
Answer: Its value is 3.7%.

Question: What about the “Nausea Vomiting and Diarrhea: m, number of patients who experienced new event during interval” value ([4]; T/Wk 1) of the same substance?
Answer: Its value is 2.

Question: And the “Nausea Vomiting and Diarrhea: % patients who experienced new event during interval” value ([4]; T/Wk 2)?
Answer: Its value is 0.0%.

Question: What about the “Nausea Vomiting and Diarrhea: m, number of patients who experienced new event during interval” value ([4]; T/Wk 2) of the same substance?
Answer: The value was 0.

Question: And the “Nausea Vomiting and Diarrhea: % patients who experienced new event during interval” value ([4]; T/Wk 3)?
Answer: Its value is 3.8%.

Question: And the “Nausea Vomiting and Diarrhea: m, number of patients who experienced new event during interval” value ([4]; T/Wk 3)?
Answer: Its value is 2.

Question: And the “Nausea Vomiting and Diarrhea: % patients who experienced new event during interval” value ([4]; T/Wk 4)?
Answer: Its value is 1.9%.

Question: And the “Nausea Vomiting and Diarrhea: m, number of patients who experienced new event during interval” value ([4]; T/Wk 4)?
Answer: Its value is 1.

Question: What about the “Nausea Vomiting and Diarrhea: % patients who experienced new event during interval” value ([4]; T/Wk 5) of the same substance?
Answer: The value was 0.0%.

Question: And the “Nausea Vomiting and Diarrhea: m, number of patients who experienced new event during interval” value ([4]; T/Wk 5)?
Answer: Its value is 0.

Question: What about the “Nausea Vomiting and Diarrhea: % patients who experienced new event during interval” value ([4]; T/Wk 6) of the same substance?
Answer: The value was 0.0%.

Question: And the “Nausea Vomiting and Diarrhea: m, number of patients who experienced new event during interval” value ([4]; T/Wk 6)?
Answer: Its value is 0.

Question: And the “Nausea Vomiting and Diarrhea: % patients who experienced new event during interval” value ([4]; T/Wk 7)?
Answer: Its value is 1.9%.

Question: What about the “Nausea Vomiting and Diarrhea: m, number of patients who experienced new event during interval” value ([4]; T/Wk 7) of the same substance?
Answer: The value was 1.

Question: And the “Nausea Vomiting and Diarrhea: % patients who experienced new event during interval” value ([4]; T/Wk 8)?
Answer: Its value is 0.0%.

Question: What about the “Nausea Vomiting and Diarrhea: m, number of patients who experienced new event during interval” value ([4]; T/Wk 8) of the same substance?
Answer: The value was 0.

Question: What about the “Nausea Vomiting and Diarrhea: % patients who experienced new event during interval” value ([4]; T/Wk 9) of the same substance?
Answer: Its value is 1.9%.

Question: And the “Nausea Vomiting and Diarrhea: m, number of patients who experienced new event during interval” value ([4]; T/Wk 9)?
Answer: The value was 1.

Question: And the “Nausea Vomiting and Diarrhea: % patients who experienced new event during interval” value ([4]; T/Wk 10)?
Answer: The value was 0.0%.

Question: And the “Nausea Vomiting and Diarrhea: m, number of patients who experienced new event during interval” value ([4]; T/Wk 10)?
Answer: Its value is 0.

Question: And the “Nausea Vomiting and Diarrhea: % patients who experienced new event during interval” value ([4]; T/Wk 11)?
Answer: The value was 0.0%.

Question: And the “Nausea Vomiting and Diarrhea: m, number of patients who experienced new event during interval” value ([4]; T/Wk 11)?
Answer: Its value is 0.

Question: And the “Nausea Vomiting and Diarrhea: % patients who experienced new event during interval” value ([4]; T/Wk 12)?
Answer: Its value is 2.0%.

Question: What about the “Nausea Vomiting and Diarrhea: m, number of patients who experienced new event during interval” value ([4]; T/Wk 12) of the same substance?
Answer: Its value is 1.

Question: And the “Nausea Vomiting and Diarrhea: % patients who experienced new event during interval” value ([4]; T/Wk >12 < 16)?
Answer: Its value is 3.9%.

Question: What about the “Nausea Vomiting and Diarrhea: m, number of patients who experienced new event during interval” value ([4]; T/Wk >12 < 16) of the same substance?
Answer: Its value is 2.

Question: What about the “Nausea Vomiting and Diarrhea: % patients who experienced new event during interval” value ([4]; T/Wk >16 ≤ 20) of the same substance?
Answer: The value was 2.0%.

Question: And the “Nausea Vomiting and Diarrhea: m, number of patients who experienced new event during interval” value ([4]; T/Wk >16 ≤ 20)?
Answer: The value was 1.

Question: And the “Nausea Vomiting and Diarrhea: % patients who experienced new event during interval” value ([4]; T/Wk >20)?
Answer: Its value is 7.8%.

Question: And the “Nausea Vomiting and Diarrhea: m, number of patients who experienced new event during interval” value ([4]; T/Wk >20)?
Answer: Its value is 4.

Question: And the “% of Patients Achieving Weight loss ≥10%” value ([5]; LOCF)?
Answer: Its value is 9.3%.

Question: And the “odds ratio vs. placebo, Weight loss ≥10%” value ([5]; LOCF)?
Answer: Its value is 11.7.

Question: What about the “% of Patients Achieving Weight loss ≥10%” value [5, 6] of the same substance?
Answer: Its value is 10.6%.

Question: What about the “% of Patients Achieving Weight loss ≥15%” value [5, 6] of the same substance?
Answer: Its value is 2.1%.

Question: And the “odds ratio vs. placebo, Weight loss ≥10%” value [5, 6]?
Answer: The value was 10.4.
